Here are results for 19 molecules from patent publication US20240166754A1 (SYNTHEKINE, published 2024).

Positions count from the first letter of the chain named.

The labels stand for the following.
B1: hIL12Rb1_VHH17 (VHH)
VHH: QVQLQESGGGSVQAGGFLRLSCVASGYGYCGYDMSWYRQVPGKEREFVALITSDRSVSYEDSVKGRFSISRDNAKNTAYLEMNRLTPDDTAIYYCKTSTAARENNWCRSRYRIASWGQGTQVTVSS
notes: Camel VHH
B2: hIL12Rb1_VHH5 (VHH)
VHH: B1 VHH with I92V, S115Y
notes: Camel VHH
B3: hIL12Rb1_VHH4 (VHH)
VHH: QVQLQESGGGSVQAGGSLRLSCVASGYGYCGYDMSWYRQTPGKEREFVALITSDRIASYEDSVKGRFIISRDNAKNTGYLDMTRVTPDDTAIYYCKTSAAARENSWCRSRYRVASWGQGTQVTVSS
notes: Camel VHH
B4: hIL12Rb1_VHH13 (VHH)
VHH: B1 VHH with V40A, D54E, S56V, V57I, K75E, A78G, T99A, N104S, N105S, I113V
notes: Camel VHH
B5: hIL12Rb1_VHH6 (VHH)
VHH: QVQLQESGGGSVQAGGSLRLSCAASRYTYTNNFMAWFRQAPGKEREGVAAIYTGDGYAYYFYSVKGRFTISQDNDENMLYLQMNSLKPEDTAMYYCAAMERRIGTRRMTENAEYKYWGQGTQVTVSS
notes: Camel VHH
B6: hIL12Rb1_VHH18 (VHH)
VHH: B5 VHH with Y62D, E76K, I103S, T105R
notes: Camel VHH
B7: hIL12Rb1_VHH22 (VHH)
VHH: QVQLQESGGGSVQAGGSLRLSCTASGYTYSSAFMAWFRQAPGKEREGVAAIYTRDGGTVYADSVKGRFTISQDNAKNTLYLQMNSLKAEDTAMYYCAAKIPQPGRASLLDSQTYDYWGQGTQVTVSS
notes: Camel VHH
B8: hIL12Rb1_VHH20 (VHH)
VHH: B7 VHH with G57S, T58P, V64L, Y80H, A88P, Q102E, A106I, Q119H
notes: Camel VHH
B9: hIL12Rb1_VHH2 (VHH)
VHH: B7 VHH with T78I
notes: Camel VHH
B10: hIL12Rb1_VHH16 (VHH)
VHH: B7 VHH with I51M, M83I, N84H, S85T
notes: Camel VHH
B11: hIL12Rb1_VHH12 (VHH)
VHH: B7 VHH with A88P, I100M
notes: Camel VHH
B12: hIL12Rb1_VHH21 (VHH)
VHH: B7 VHH with I51M, A88T
notes: Camel VHH
B13: hIL12Rb1_VHH14 (VHH)
VHH: QVQLQESGGGSVQAGGSLRLSCAVSGYDYCGYDVRWYRRAPGKEREFVSGIDSDGSTSYADSVKGRFTISQDNAENTSYLHMFSLKPEDTAMYYCKTESPAGESAWCRNFRGMDYWGKGTQVTVSS
notes: Camel VHH
B14: hIL12Rb1_VHH11 (VHH)
VHH: B13 VHH with R39Q
notes: Camel VHH
B15: hIL12Rb1_VHH15 (VHH)
VHH: B13 VHH with R39Q, D52N
notes: Camel VHH
B16: hIL12Rb1_VHH19 (VHH)
VHH: B13 VHH with R39Q, D52N, S99G
notes: Camel VHH
B17: hIL12Rb1_VHH3 (VHH)
VHH: QVQLQESGGGSVQAGGSLRLSCVASGYSYCGYDMMWYRQAPGKEREFVALITSDYSIRYEDSVEGRFSISRDNAKNTGYLLMSNLTPADTAIYYCKTSTAARESSWCRSRYRVASWGQGTQVTVSS
notes: Camel VHH
B18: hIL12Rb1_VHH8 (VHH)
VHH: B17 VHH
notes: Camel VHH
B19: hIL12Rb1_VHH9 (VHH)
VHH: B17 VHH with S105G
notes: Camel VHH

The target of this experiment is T1, extracellular domain of human IL12RB1 (hIL12Rb1 ECD antigen) (human, UniProt P42701 24-545).
T1 construct: also called IL12Rβ1; CD212
Description: periplasmic extract ELISA on antigen-coated plate after phage biopanning. On the procedure: Upon completion of the biopanning of Example 3, three 96-well plates of individual phage clones were isolated in order to perform periplasmic extract ELISA (PE-ELISA) on IL12Rb1 coated plates to identify positive VHH binders that selectively bound IL12Rb1. A 96-well plate was coated with IL12Rb1 and PBS under the same conditions. Next, wells were blocked at 37° ° C. for 1 h. Then, 100 μl of extracted antibodies was added to each well and incubated for 1 h. Subsequently, 100 μl of anti-tag polyclonal antibody conjugated to HRP was added to each well and incubated at 37 °C for 1 h. Plates were developed with TMB substrate. The reaction was stopped by the addition of H2SO4. Absorbance at 450 nm was read on a microtiter plate reader. Antibodies with absorbance of the antigen-coated well at least threefold greater than PBS-coated control are VHHs that specifically bind to IL12Rb1. Positive clones were sequenced, and sequences analyzed to identify unique clonotypes.
Turning to B1, the binding result was “binds”. The same measure for B2: “binds”; for B3: “binds”. The same measure for B4: “binds”.

In the case of B5, the binding result was “binds”. Under B6 stands “binds”; under B7, “binds”.

Turning to B8, the binding result is reported as “binds”. Under B9 stands “binds”; under B10, “binds”; under B11, “binds”. The same measure for B12: “binds”; for B13: “binds”. Under B14 stands “binds”; under B15, “binds”; under B16, “binds”. Take B17: the binding result is given as “binds”.

For B18, the binding result is “binds”. The same measure for B19: “binds”.
